Assay [1] has as its target β-synuclein (endogenous) (mouse (endogenous in C57BL/6 brain)) (UniProt Q91ZZ3). Briefly: co-IP; reverse co-IP from dephosphorylated wild-type mouse brain lysate (neither heated nor dialyzed) with antibodies for synaptophysin, β-synuclein or apoA1; blot probed with Dako Tau antibody, the three Tau isoforms quantified with ImageJ.
Assay [2] addresses synaptophysin (endogenous) (mouse (endogenous in C57BL/6 brain)) (UniProt Q62277). The description is as above.
The target of assay [3] is β-synuclein (endogenous) (mouse (endogenous in C57BL/6 brain)) (UniProt Q91ZZ3). The assay is described as above. This is another data set of the same source.
Assay [4] has as its target recombinant 1N Tau (Mtau210, 1N4R, with N-terminal GST tag) (murine). Briefly: ELISA; plates coated overnight at 4 °C with recombinant 0N, 1N or 2N Tau at 10 μg/ml in PBS, blocked with 3% BSA; recombinant β-synuclein and synaptophysin at 10 μg/ml in PBS for 1 h at room temperature, detected with anti-V5; recombinant apoA1 detected with an anti-apoA1 antibody; absorbance at 450 nm after subtraction of BSA-coated wells. Background: In an ELISA, binding on a coated surface is turned into a signal by an enzyme label.

Assay [5] concerns the target recombinant 2N Tau (Mtau2310, 2N4R, with N-terminal GST tag) (murine). The description is as above.

Where two headings read alike, the source gives them in different places.

Chain of UniProt Q62277 (Q62277 whole entry): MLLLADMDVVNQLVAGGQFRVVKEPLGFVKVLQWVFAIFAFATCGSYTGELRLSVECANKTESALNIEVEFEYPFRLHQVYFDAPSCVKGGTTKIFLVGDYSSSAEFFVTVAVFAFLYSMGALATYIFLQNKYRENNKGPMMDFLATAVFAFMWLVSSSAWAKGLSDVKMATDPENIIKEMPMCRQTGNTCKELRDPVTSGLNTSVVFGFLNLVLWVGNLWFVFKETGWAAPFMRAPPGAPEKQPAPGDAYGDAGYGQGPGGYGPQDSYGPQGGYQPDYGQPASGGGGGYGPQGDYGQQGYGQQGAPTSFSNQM

As for 1N Tau (endogenous) (natural protein), the values for the ratio to 0N Tau (Western blot of the reverse IP) in assay [1], in assay [2] and in assay [3] were 0.41, 0.97 and 0.897, respectively.
2N Tau (endogenous) (natural protein): the values for the ratio to 0N Tau (Western blot of the reverse IP) in assay [1], in assay [2] and in assay [3] were 0.37, 0.93 and 0.5, respectively.
With “recombinant β-synuclein (C-terminal His6 and V5 tag) (from UniProt Q91ZZ3 1-133) (natural protein)”, the ratio to 0N Tau (ELISA absorbance) in assay [4] is 0.63; in assay [5] it was 0.26.

The values above are taken from PMC4825019.
